Reference: patent publication US20100040541A1 (published 2010)

Legend:
[1] = molecular target: T1, CD20 (human B lymphocyte-restricted differentiation antigen, Bp35) on human Burkitt lymphoma cells (Raji, Daudi, Ramos) (human) (UniProt P11836); assay: cell-based or functional assay
T1 sequence (looked up): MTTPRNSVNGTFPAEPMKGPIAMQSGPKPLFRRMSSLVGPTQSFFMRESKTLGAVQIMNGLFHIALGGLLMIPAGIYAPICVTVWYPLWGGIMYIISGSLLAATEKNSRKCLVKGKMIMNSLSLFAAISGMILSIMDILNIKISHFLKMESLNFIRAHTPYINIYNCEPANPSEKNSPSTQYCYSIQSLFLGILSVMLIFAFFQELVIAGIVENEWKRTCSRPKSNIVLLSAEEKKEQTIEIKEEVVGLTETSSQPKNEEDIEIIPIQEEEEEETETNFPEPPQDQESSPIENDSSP

[2] = molecular target: T2, CD20 (human B lymphocyte-restricted differentiation antigen, Bp35) on human Burkitt lymphoma cells (Raji, … (human, UniProt P11836 1-297)); assay: saturation binding of 125I-labeled MAb to Raji cells, nonlinear regression / Scatchard, replicate assays
T2 construct: whole, on cells; also called cell-surface CD20
T2 sequence (looked up): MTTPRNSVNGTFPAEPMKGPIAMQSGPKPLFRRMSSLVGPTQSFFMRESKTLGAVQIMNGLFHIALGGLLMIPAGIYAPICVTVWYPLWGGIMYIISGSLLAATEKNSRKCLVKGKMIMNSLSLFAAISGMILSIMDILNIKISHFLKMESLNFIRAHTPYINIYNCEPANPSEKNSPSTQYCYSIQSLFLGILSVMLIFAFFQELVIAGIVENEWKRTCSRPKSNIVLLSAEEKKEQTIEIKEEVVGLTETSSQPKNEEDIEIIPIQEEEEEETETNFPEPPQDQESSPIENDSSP
Description: Raji cells (5×10⁵) were incubated with radioiodinated MAbs in an assay volume of 225 μl, using tissue culture media as diluent, for 1 h at 37° C. or room temperature. Cells then were washed twice with PBS containing 1% horse serum, and cell pellets were counted in a gamma counter. The MAbs were titrated at a 2:3 serial dilution starting with approximately 2×10⁶ cpm/2 μg MAb/tube, run in triplicate. Non-specific binding was measured by including replicate unlabeled MAb.

[3] = molecular target: T2, CD20 (human B lymphocyte-restricted …); assay: flow cytometry dissociation of PE-labeled MAb from Raji cells at 37 C without competing veltuzumab-Fab'-NEM
Description: The off-rate was determined by non-linear regression (one phase exponential decay) and P-values were generated by F-test using GraphPad Prism software.
(§1) Cells (Daudi, Raji, or Ramos) in 0.5 mL of CM (phenol red-free RPMI 1640 media supplemented with 10% FBS) at 1×10⁶ cells/mL were incubated with 5 μg of each PE-labeled MAb at room temperature for 30 min, pelleted at 400×g, washed twice with CM, resuspended in 1.5 mL of CM, and split into two 0.75-mL aliquots. […] Subsequent measurements were taken at 30-min intervals. The percent maximal binding, which is the quotient of the MFI at T=X divided by that at T=0, was plotted against time, and the results analyzed by Prism software (GraphPad Software Inc., San Diego, Calif.) to yield the half-life or off-rates.

[4] = molecular target: T2, CD20 (human B lymphocyte-restricted …); assay: flow cytometry dissociation from lymphoma cells, with or without a competitive binder
Description: as §1

[5] = molecular target: anti-idiotype antibodies; assay: binding of radioiodinated MAb to anti-idiotype antibodies
[6] = molecular target: T2, CD20 (human B lymphocyte-restricted …); assay: flow cytometry dissociation of PE-labeled MAb from Daudi, Ramos and Raji cells at 37 C with excess veltuzumab-Fab'-NEM
Description: as §1

[7] = molecular target: T2, CD20 (human B lymphocyte-restricted …); assay: flow cytometry dissociation of PE-labeled MAb from Raji cells at 37 C with excess veltuzumab-Fab'-NEM
Description: as §1

[8] = molecular target: T1, CD20 (human B lymphocyte-restricted differentiation antigen, Bp35) on human Burkitt lymphoma cells (Raji, Daudi, Ramos) (human); assay: flow cytometry dissociation of PE-labeled MAb from Raji cells at 37 C without competing veltuzumab-Fab'-NEM

| Molecule | Kd [2] [nM] | half-life (dissociation) [3] [h] | fold slower off-rate than rituximab or D101N [4] [fold] | also measured |
| --- | --- | --- | --- | --- |
| hMN-14 IgG (labetuzumab), humanized anti-CEACAM5 monoclonal antibody, negative control | – | – | – | ADCC (% lysis) of Daudi cells with PBMCs, negative control MAb [1]: 9.9 % lysis |
| rituximab, chimeric anti-CD20 monoclonal antibody (IDEC-c2B8) (antibody, V domains shown, Commercial chimeric antibody with human constant regions; also called Rmab; Rituxan) VH: QVQLQQPGAELVKPGASVKMSCKASGYTFTSYNMHWVKQTPGRGLEWIGAIYPGNGDTSYNQKFKGKATLTADKSSSTAYMQLSSLTSEDSAVYYCARSTYYGGDWYFNVWGQGTTVTVSS VL: QIVLSQSPAILSASPGEKVTMTCRASSSVSYIHWFQQKPGSSPKPWIYATSNLASGVPVRFSGSGSGTSYSLTISRVEAEDAATYYCQQWTSNPPTFGGGTK | 6.7 to 8.63 | 1.57 | – | – |
| cA20, chimeric anti-CD20 antibody (antibody, V domains shown, Chimeric antibody: murine variable regions on human constant regions) VH: QVQLQQPGAELVKPGASVKMSCKASGYTFTSYNMHWVKQTPGRGLEWIGAIYPGNGDTSYNQKFKGKATLTADKSSSTAYMQLSSLTSEDSAVYYCARSTYYGGDWYFDVWGQGTTVTVSS VL: DIQLTQSPAILSASPGEKVTMTCRASSSVSYIHWFQQKPGSSPKPWIYATSNLASGVPVRFSGSGSGTSYSLTISRVEAEDAATYYCQQWTSNPPTFGGGTKLEIK | – | – | ~2.5 | – |
| veltuzumab (hA20), humanized anti-CD20 IgG-kappa monoclonal antibody (antibody, V domains shown, also called v-mab; Vmab) VH: QVQLQQSGAEVKKPGSSVKVSCKASGYTFTSYNMHWVKQAPGQGLEWIGAIYPGNGDTSYNQKFKGKATLTADESTNTAYMELSSLRSEDTAFYYCARSTYYGGDWYFDVWGQGTTVTVSS VL: DIQLTQSPSSLSASVGDRVTMTCRASSSVSYIHWFQQKPGKAPKPWIYATSNLASGVPVRFSGSGSGTDYTFTISSLQPEDIATYYCQQWTSNPPTFGGGTKLEIK | 6.23 to 12 | 4.68 | ~2.5 | immunoreactivity [5]: > 90%; fold longer dissociation half-life than rituximab [6]: 2.7 fold |
| D101N, mutant of veltuzumab with aspartic acid changed to asparagine at Kabat position 101 in CDRH3 (antibody, name in Kabat numbering, V domains shown, It has the same CDRs as rituximab and FRs identical to veltuzumab, with the same constant regions as veltuzumab (hA20-pdHL2 vector); also called D101N-hA20) VH: QVQLQQSGAEVKKPGSSVKVSCKASGYTFTSYNMHWVKQAPGQGLEWIGAIYPGNGDTSYNQKFKGKATLTADESTNTAYMELSSLRSEDTAFYYCARSTYYGGDWYFNVWGQGTTVTVSS VL: DIQLTQSPSSLSASVGDRVTMTCRASSSVSYIHWFQQKPGKAPKPWIYATSNLASGVPVRFSGSGSGTDYTFTISSLQPEDIATYYCQQWTSNPPTFGGGTKLEIK | – | 0.7 | – | fold faster off-rate than rituximab [7]: 2 fold; fold faster off-rate than veltuzumab [7]: 6 fold |
| 1F5, murine anti-CD20 monoclonal antibody (antibody, from another filing, V domains shown) VH: QVQLRQPGAELVKPGASVKMSCKASGYTFTSYNMHWVKQTPGQGLEWIGAIYPGNGDTSYNQKFKGKATLTADKSSSTAYMQLSSLTSEDSAVYYCARSHYGSNYVDYFDYWGQGTTLTVSS VL: QIVLSQSPAILSASPGEKVTMTCRASSSLSFMHWYQQKPGSSPKPWIYATSNLASGVPARFSGSGSGTSYSLTISRVEAEDAATYFCHQWSSNPLTFGAGTKLELKR | – | – | – | half-life (dissociation) [8]: 3.25 h |
